For one molecule, Kd results are on record in patent publication US20130309230A1 (published 2013).

Usually Kd stands for the concentration at which binding is half-saturated.

In one assay the target is AA, + MMP-9. Kind of assay: SPR; + MMP-9 (activated AA). In general terms: SPR reads the build-up and loss of mass on a sensor chip optically.
A further assay concerns the target AA, - MMP-9. Put plainly: SPR; - MMP-9 (uncleaved, masked AA).

B1: VEGF (ligand)
chain: APMAEGGGQNHHEVVKFMDVYQRSYCHPIETLVDIFQEYPDEIEYIFKPSCVPLMRCGGCCNDEGLECVPTEESNITMQIMRIKPHQGQHIGEMSFLQHNKCECRPKKDRARQENPCGPCSERRKHLFVQDPQTCKCSCKNTDSRCKARQLELNERTCRCDKPRR
B1: the Kd was 0.35 nM in the assay with AA, + MMP-9 and over 200 nM with AA, - MMP-9.
